Experiment [1] addresses T1, recombinant mouse proNGF (rm-proNGF) (mouse, UniProt P01139 19-241). The experiment can be described thus: SPR (BIAcore 2000), antibody amine-coupled on CM5 chip (3000 RU), rm-proNGF injected, kinetic analysis. The method, then: The injected concentrations of the rm-proNGF are indicated on top of each curve.
(§1) Experiments were performed on CM5 chips with amine coupling, using a BIAcore 2000 machine. Coupling was performed with a specific kit purchased at BIAcore and the coupling reaction was carried out according to manufacturer's instructions.
(§2) Anti-NGF antibodies were immobilized on chip, while mouse NGF (m-NGF, Alomone) or recombinant mouse proNGF (rm-proNGF) were injected at decreasing concentrations to obtain binding curves.

Experiment [2] deals with T2, mouse NGF (m-NGF, Alomone) (mouse, UniProt P01139 122-241).
T2 construct: mature; Commercial m-NGF
Put plainly: SPR (BIAcore 2000), antibody amine-coupled on CM5 chip, m-NGF injected. Here is the method: For m-NGF binding, the immobilization of the antibody was of 3000 resonance units (RU) in the experiment of panel A and of 6000 RU in the experiment of panel B. The injected concentrations of the m-NGF are indicated on top of each curve. From a complete analysis of the data, the affinity parameters were evaluated, and resulted to be the following.
as §1, §2

In experiment [3] the target is T1, recombinant mouse proNGF (rm-proNGF). The experiment can be described thus: SPR (BIAcore), antibody immobilized.

T1 sequence (P01139 19-241): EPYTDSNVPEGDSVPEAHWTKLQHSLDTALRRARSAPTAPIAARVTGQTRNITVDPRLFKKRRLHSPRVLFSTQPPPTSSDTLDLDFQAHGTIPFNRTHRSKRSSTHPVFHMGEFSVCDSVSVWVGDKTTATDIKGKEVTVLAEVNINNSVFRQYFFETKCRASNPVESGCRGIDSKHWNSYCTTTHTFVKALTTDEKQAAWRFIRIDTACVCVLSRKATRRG
T2 sequence (P01139 122-241 limits assumed): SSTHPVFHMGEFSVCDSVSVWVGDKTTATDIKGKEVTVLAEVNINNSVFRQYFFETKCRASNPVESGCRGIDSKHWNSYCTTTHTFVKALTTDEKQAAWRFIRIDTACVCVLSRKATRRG

B1: αD11 anti-NGF antibody (antibody, V domains shown)
VH: QVQLKESGPGLVQPSQTLSLTCTVSGFSLTNNNVNWVRQATGRGLEWMGGVWAGGATDYNSALKSRLTITRDTSKSQVFLKMHSLQSEDTATYYCARDGGYSSSTLYAMDAWGQGTTVTVSA
VL: DIQMTQSPASLSASLGETVTIECRASEDIYNALAWYQQKPGKSPQLLIYNTDTLHTGVPSRFSGSGSGTQYSLKINSLQSEDVASYFCQHYFHYPRTFGGGTKLELK
notes: Rat monoclonal antibody purified from hybridoma supernatant; the constant regions are not; also called alphaD11; aD11
As for B1, in experiment [1], the Ka amounted to 1.2e+09 M⁻¹ and the Kd stood at 1.9 nM. For the same molecule, the Kd in experiment [2] turned out to be 0.0028 nM.

B2: Hu-αD11 (humanized variant of the αD11 anti-NGF antibody) (antibody, V domains shown)
VH: EVQLVESGGGLVQPGGSLRLSCAASGFSLTNNNVNWVRQAPGKGLEWVGGVWAGGATDYNSALKSRFTISRDNSKNTAYLQMNSLRAEDTAVYYCARDGGYSSSTLYAMDAWGQGTLVTVSS
VL: DIQMTQSPSSLSASVGDRVTITCRASEDIYNALAWYQQKPGKAPKLLIYNTDTLHTGVPSRFSGSGSGTDYTLTISSLQPEDFATYFCQHYFHYPRTFGQGTKVEIK
notes: also called Hu-alphaD11; Hu-aD11
Take B2: in experiment [3], the binding result was “binds”.

The values above are taken from US20090208490A1 (AbbVie / Abbott, published 2009).
